Test results taken from the supplement of paper PMC6757056.
± gives the standard deviation of the averaged measurements.

B1: library; a variant is named by its letters at N, in order (parent)
chain: GCUGUCACCGAGAAACUGUGAAGUAUAUCUUAAACCUGGGCACUUAAAAGAUAUAUGGAGUUAGUAGUGCAACCUGCUCGGUCUGAUGAGUCCNNNNNNGGACGAAACAGC

Columns and labels:
cyclic di-GMP [1] = variants of: B1; experiment: normalized RNA/DNA level without ligand (relative to sTRSVctl = 100) (log10 (% of sTRSVctl)); HEK293T; ligand: cyclic di-GMP (c-di-GMP-II aptamer); higher = less ribozyme self-cleavage, higher mRNA level; conditions: reporter: mCherry (pCS4076), ligand present: no
Summary of the method: (§1)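 RNA level was computed as RNA reads over DNA reads divided by a spiked-in non-cleaving sequence or by the top sequences, then scaled and log-transformed. Scaling was ×100 with log10, the top group was 25 sequences, and the threshold was ≥100 DNA reads. The reads came from HEK293T cells transfected at 4 µg per 6-well well with ribozyme switch library plasmids (mCherry, or eGFP in some ligand experiments). Total RNA was extracted with EDTA 72 h after transfection, with any ligand added 1 h before it.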

cyclic di-GMP [2] = variants of: B1; experiment: normalized RNA/DNA level with ligand (relative to sTRSVctl = 100) (log10 (% of sTRSVctl)); HEK293T; ligand: cyclic di-GMP (c-di-GMP-II aptamer); ligand concentration (+) RNA-Seq: 1 mM; higher = less ribozyme self-cleavage, higher mRNA level; conditions: reporter: mCherry (pCS4076), ligand present: yes
Summary of the method: as §1

Row | Variant | normalized RNA/DNA level without ligand (log10) (cyclic di-GMP [1]) | normalized RNA/DNA level with ligand (log10) (cyclic di-GMP [2])
1 | GCUGUCACCGAGAAACUGUGAAGUAUAUCUUAAACCUGGGCACUUAAAAGAUAUAUGGAGUUAGUAGUGCAACCUGCUCGGUCUGAUGAGUCCCAGCGCGGACGAAACAGC [CAGCGC] | 1.731 ± 0.013 | 1.87 ± 0.15
2 | GCUGUCACCGAGAAACUGUGAAGUAUAUCUUAAACCUGGGCACUUAAAAGAUAUAUGGAGUUAGUAGUGCAACCUGCUCGGUCUGAUGAGUCCAAUCGAGGACGAAACAGC [AAUCGA] | 1.49 ± 0.07 | 1.69 ± 0.094
3 | GCUGUCACCGAGAAACUGUGAAGUAUAUCUUAAACCUGGGCACUUAAAAGAUAUAUGGAGUUAGUAGUGCAACCUGCUCGGUCUGAUGAGUCCUUGUGGGGACGAAACAGC [UUGUGG] | 1.795 ± 0.0063 | 1.9 ± 0.1
4 | GCUGUCACCGAGAAACUGUGAAGUAUAUCUUAAACCUGGGCACUUAAAAGAUAUAUGGAGUUAGUAGUGCAACCUGCUCGGUCUGAUGAGUCCGCCGGCGGACGAAACAGC [GCCGGC] | 1.56 ± 0.035 | 1.74 ± 0.2
5 | GCUGUCACCGAGAAACUGUGAAGUAUAUCUUAAACCUGGGCACUUAAAAGAUAUAUGGAGUUAGUAGUGCAACCUGCUCGGUCUGAUGAGUCCCUAGGCGGACGAAACAGC [CUAGGC] | 1.74 ± 0.03 | 1.89 ± 0.11
6 | GCUGUCACCGAGAAACUGUGAAGUAUAUCUUAAACCUGGGCACUUAAAAGAUAUAUGGAGUUAGUAGUGCAACCUGCUCGGUCUGAUGAGUCCCGUCGUGGACGAAACAGC [CGUCGU] | 1.78 ± 0.061 | 1.9 ± 0.13
7 | GCUGUCACCGAGAAACUGUGAAGUAUAUCUUAAACCUGGGCACUUAAAAGAUAUAUGGAGUUAGUAGUGCAACCUGCUCGGUCUGAUGAGUCCGGUCCCGGACGAAACAGC [GGUCCC] | 1.83 ± 0.045 | 1.92 ± 0.11
8 | GCUGUCACCGAGAAACUGUGAAGUAUAUCUUAAACCUGGGCACUUAAAAGAUAUAUGGAGUUAGUAGUGCAACCUGCUCGGUCUGAUGAGUCCGCUUGCGGACGAAACAGC [GCUUGC] | 1.77 ± 0.057 | 1.87 ± 0.17
9 | GCUGUCACCGAGAAACUGUGAAGUAUAUCUUAAACCUGGGCACUUAAAAGAUAUAUGGAGUUAGUAGUGCAACCUGCUCGGUCUGAUGAGUCCACGCCGGGACGAAACAGC [ACGCCG] | 1.74 ± 0.046 | 1.85 ± 0.067
10 | GCUGUCACCGAGAAACUGUGAAGUAUAUCUUAAACCUGGGCACUUAAAAGAUAUAUGGAGUUAGUAGUGCAACCUGCUCGGUCUGAUGAGUCCAAUGCAGGACGAAACAGC [AAUGCA] | 1.666 ± 0.0048 | 1.78 ± 0.14
11 | GCUGUCACCGAGAAACUGUGAAGUAUAUCUUAAACCUGGGCACUUAAAAGAUAUAUGGAGUUAGUAGUGCAACCUGCUCGGUCUGAUGAGUCCUUUGAUGGACGAAACAGC [UUUGAU] | 1.649 ± 0.014 | 1.82 ± 0.12
12 | GCUGUCACCGAGAAACUGUGAAGUAUAUCUUAAACCUGGGCACUUAAAAGAUAUAUGGAGUUAGUAGUGCAACCUGCUCGGUCUGAUGAGUCCUUGGGUGGACGAAACAGC [UUGGGU] | 1.68 ± 0.024 | 1.84 ± 0.088
13 | GCUGUCACCGAGAAACUGUGAAGUAUAUCUUAAACCUGGGCACUUAAAAGAUAUAUGGAGUUAGUAGUGCAACCUGCUCGGUCUGAUGAGUCCACGCAAGGACGAAACAGC [ACGCAA] | 1.47 ± 0.075 | 1.64 ± 0.11
14 | GCUGUCACCGAGAAACUGUGAAGUAUAUCUUAAACCUGGGCACUUAAAAGAUAUAUGGAGUUAGUAGUGCAACCUGCUCGGUCUGAUGAGUCCAGCGGCGGACGAAACAGC [AGCGGC] | 1.731 ± 0.0051 | 1.87 ± 0.074
15 | GCUGUCACCGAGAAACUGUGAAGUAUAUCUUAAACCUGGGCACUUAAAAGAUAUAUGGAGUUAGUAGUGCAACCUGCUCGGUCUGAUGAGUCCAACACGGGACGAAACAGC [AACACG] | 1.55 ± 0.073 | 1.74 ± 0.088
16 | GCUGUCACCGAGAAACUGUGAAGUAUAUCUUAAACCUGGGCACUUAAAAGAUAUAUGGAGUUAGUAGUGCAACCUGCUCGGUCUGAUGAGUCCCACAUGGGACGAAACAGC [CACAUG] | 1.717 ± 0.01 | 1.84 ± 0.095
17 | GCUGUCACCGAGAAACUGUGAAGUAUAUCUUAAACCUGGGCACUUAAAAGAUAUAUGGAGUUAGUAGUGCAACCUGCUCGGUCUGAUGAGUCCUUUACAGGACGAAACAGC [UUUACA] | 1.73 ± 0.037 | 1.85 ± 0.1
18 | GCUGUCACCGAGAAACUGUGAAGUAUAUCUUAAACCUGGGCACUUAAAAGAUAUAUGGAGUUAGUAGUGCAACCUGCUCGGUCUGAUGAGUCCUGUCUUGGACGAAACAGC [UGUCUU] | 1.73 ± 0.0071 | 1.88 ± 0.1
19 | GCUGUCACCGAGAAACUGUGAAGUAUAUCUUAAACCUGGGCACUUAAAAGAUAUAUGGAGUUAGUAGUGCAACCUGCUCGGUCUGAUGAGUCCAUACGGGGACGAAACAGC [AUACGG] | 1.58 ± 0.093 | 1.74 ± 0.056
20 | GCUGUCACCGAGAAACUGUGAAGUAUAUCUUAAACCUGGGCACUUAAAAGAUAUAUGGAGUUAGUAGUGCAACCUGCUCGGUCUGAUGAGUCCUAUCCAGGACGAAACAGC [UAUCCA] | 1.77 ± 0.062 | 1.86 ± 0.097
21 | GCUGUCACCGAGAAACUGUGAAGUAUAUCUUAAACCUGGGCACUUAAAAGAUAUAUGGAGUUAGUAGUGCAACCUGCUCGGUCUGAUGAGUCCCUCCAGGGACGAAACAGC [CUCCAG] | 1.73 ± 0.07 | 1.86 ± 0.055
22 | GCUGUCACCGAGAAACUGUGAAGUAUAUCUUAAACCUGGGCACUUAAAAGAUAUAUGGAGUUAGUAGUGCAACCUGCUCGGUCUGAUGAGUCCUUGAUAGGACGAAACAGC [UUGAUA] | 1.49 ± 0.02 | 1.69 ± 0.17
23 | GCUGUCACCGAGAAACUGUGAAGUAUAUCUUAAACCUGGGCACUUAAAAGAUAUAUGGAGUUAGUAGUGCAACCUGCUCGGUCUGAUGAGUCCCACUAGGGACGAAACAGC [CACUAG] | 1.759 ± 0.017 | 1.88 ± 0.14
24 | GCUGUCACCGAGAAACUGUGAAGUAUAUCUUAAACCUGGGCACUUAAAAGAUAUAUGGAGUUAGUAGUGCAACCUGCUCGGUCUGAUGAGUCCAGACUUGGACGAAACAGC [AGACUU] | 1.679 ± 0.0077 | 1.84 ± 0.13
25 | GCUGUCACCGAGAAACUGUGAAGUAUAUCUUAAACCUGGGCACUUAAAAGAUAUAUGGAGUUAGUAGUGCAACCUGCUCGGUCUGAUGAGUCCUUUAUCGGACGAAACAGC [UUUAUC] | 1.74 ± 0.056 | 1.83 ± 0.12
26 | GCUGUCACCGAGAAACUGUGAAGUAUAUCUUAAACCUGGGCACUUAAAAGAUAUAUGGAGUUAGUAGUGCAACCUGCUCGGUCUGAUGAGUCCACAGUAGGACGAAACAGC [ACAGUA] | 1.31 ± 0.048 | 1.51 ± 0.15
